In patent publication US20180155407A1 (Sanofi, published 2018):
Numbered stars: 1 amine (or outer) side, 2 acyl side, 3 side chain; on linkers, the order of the positions; unused ones are H or OH. Square brackets hold non-standard residues; d marks the D form. Side chains are listed from the residue outwards. Ends that are not written are not given here. * marks the point of attachment. γGlu = O=C(O)[C@H](CCC(=O)[*:2])N[*:1]; Palmitoyl = CCCCCCCCCCCCCCCC(=O)*; Aib = CC(C)(N)C(=O)O

T1: human GIP receptor (human, UniProt P48546 22-466)
T1 sequence (looked up): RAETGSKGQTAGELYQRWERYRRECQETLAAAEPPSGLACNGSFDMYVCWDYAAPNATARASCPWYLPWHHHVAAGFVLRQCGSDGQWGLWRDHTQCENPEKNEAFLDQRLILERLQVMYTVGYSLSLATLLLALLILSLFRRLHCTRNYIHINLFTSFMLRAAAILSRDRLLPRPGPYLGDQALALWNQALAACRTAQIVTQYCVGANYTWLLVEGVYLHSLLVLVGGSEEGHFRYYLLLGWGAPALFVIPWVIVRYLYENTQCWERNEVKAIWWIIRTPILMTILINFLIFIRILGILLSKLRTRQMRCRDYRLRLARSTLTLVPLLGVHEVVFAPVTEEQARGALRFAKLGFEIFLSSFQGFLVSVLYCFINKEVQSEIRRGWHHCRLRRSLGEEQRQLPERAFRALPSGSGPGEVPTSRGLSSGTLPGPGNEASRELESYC

B1: SEQ ID NO: 9 (peptide)
peptide: H[Aib]QGTFTSDLSKLK([γGlu-γGlu-Palmitoyl])EEQRQ[Aib]EFIEWLKAGGPPS[Aib]KPPPK-NH2
modifications: N-terminus assumed
SMILES: CCCCCCCCCCCCCCCC(=O)N[C@@H](CCC(=O)N[C@@H](CCC(=O)NCCCC[C@H](NC(=O)[C@H](CC(C)C)NC(=O)[C@H](CCCCN)NC(=O)[C@H](CO)NC(=O)[C@H](CC(C)C)NC(=O)[C@H](CC(=O)O)NC(=O)[C@H](CO)NC(=O)[C@@H](NC(=O)[C@H](Cc1ccccc1)NC(=O)[C@@H](NC(=O)CNC(=O)[C@H](CCC(N)=O)NC(=O)C(C)(C)NC(=O)[C@@H](N)Cc1c[nH]cn1)[C@@H](C)O)[C@@H](C)O)C(=O)N[C@@H](CCC(=O)O)C(=O)N[C@@H](CCC(=O)O)C(=O)N[C@@H](CCC(N)=O)C(=O)N[C@@H](CCCNC(=N)N)C(=O)N[C@@H](CCC(N)=O)C(=O)NC(C)(C)C(=O)N[C@@H](CCC(=O)O)C(=O)N[C@@H](Cc1ccccc1)C(=O)N[C@H](C(=O)N[C@@H](CCC(=O)O)C(=O)N[C@@H](Cc1c[nH]c2ccccc12)C(=O)N[C@@H](CC(C)C)C(=O)N[C@@H](CCCCN)C(=O)N[C@@H](C)C(=O)NCC(=O)NCC(=O)N1CCC[C@H]1C(=O)N1CCC[C@H]1C(=O)N[C@@H](CO)C(=O)NC(C)(C)C(=O)N[C@@H](CCCCN)C(=O)N1CCC[C@H]1C(=O)N1CCC[C@H]1C(=O)N1CCC[C@H]1C(=O)N[C@@H](CCCCN)C(N)=O)[C@@H](C)CC)C(=O)O)C(=O)O
B2: SEQ ID NO: 12 (peptide)
peptide: H[Aib]QGTFTSDLSKLK([γGlu-γGlu-Palmitoyl])EKQRQ[Aib]EFIEWLKAGGHPS[Aib]KPPPK-NH2
modifications: N-terminus assumed
SMILES: CCCCCCCCCCCCCCCC(=O)N[C@@H](CCC(=O)N[C@@H](CCC(=O)NCCCC[C@H](NC(=O)[C@H](CC(C)C)NC(=O)[C@H](CCCCN)NC(=O)[C@H](CO)NC(=O)[C@H](CC(C)C)NC(=O)[C@H](CC(=O)O)NC(=O)[C@H](CO)NC(=O)[C@@H](NC(=O)[C@H](Cc1ccccc1)NC(=O)[C@@H](NC(=O)CNC(=O)[C@H](CCC(N)=O)NC(=O)C(C)(C)NC(=O)[C@@H](N)Cc1c[nH]cn1)[C@@H](C)O)[C@@H](C)O)C(=O)N[C@@H](CCC(=O)O)C(=O)N[C@@H](CCCCN)C(=O)N[C@@H](CCC(N)=O)C(=O)N[C@@H](CCCNC(=N)N)C(=O)N[C@@H](CCC(N)=O)C(=O)NC(C)(C)C(=O)N[C@@H](CCC(=O)O)C(=O)N[C@@H](Cc1ccccc1)C(=O)N[C@H](C(=O)N[C@@H](CCC(=O)O)C(=O)N[C@@H](Cc1c[nH]c2ccccc12)C(=O)N[C@@H](CC(C)C)C(=O)N[C@@H](CCCCN)C(=O)N[C@@H](C)C(=O)NCC(=O)NCC(=O)N[C@@H](Cc1c[nH]cn1)C(=O)N1CCC[C@H]1C(=O)N[C@@H](CO)C(=O)NC(C)(C)C(=O)N[C@@H](CCCCN)C(=O)N1CCC[C@H]1C(=O)N1CCC[C@H]1C(=O)N1CCC[C@H]1C(=O)N[C@@H](CCCCN)C(N)=O)[C@@H](C)CC)C(=O)O)C(=O)O
B3: SEQ ID NO: 13 (peptide)
peptide: H[Aib]QGTFTSDLSKLK([γGlu-γGlu-Palmitoyl])EKQRQ[Aib]EFIEWLKA[dA]GHPS[Aib]KPPPK-NH2
modifications: N-terminus assumed
SMILES: CCCCCCCCCCCCCCCC(=O)N[C@@H](CCC(=O)N[C@@H](CCC(=O)NCCCC[C@H](NC(=O)[C@H](CC(C)C)NC(=O)[C@H](CCCCN)NC(=O)[C@H](CO)NC(=O)[C@H](CC(C)C)NC(=O)[C@H](CC(=O)O)NC(=O)[C@H](CO)NC(=O)[C@@H](NC(=O)[C@H](Cc1ccccc1)NC(=O)[C@@H](NC(=O)CNC(=O)[C@H](CCC(N)=O)NC(=O)C(C)(C)NC(=O)[C@@H](N)Cc1c[nH]cn1)[C@@H](C)O)[C@@H](C)O)C(=O)N[C@@H](CCC(=O)O)C(=O)N[C@@H](CCCCN)C(=O)N[C@@H](CCC(N)=O)C(=O)N[C@@H](CCCNC(=N)N)C(=O)N[C@@H](CCC(N)=O)C(=O)NC(C)(C)C(=O)N[C@@H](CCC(=O)O)C(=O)N[C@@H](Cc1ccccc1)C(=O)N[C@H](C(=O)N[C@@H](CCC(=O)O)C(=O)N[C@@H](Cc1c[nH]c2ccccc12)C(=O)N[C@@H](CC(C)C)C(=O)N[C@@H](CCCCN)C(=O)N[C@@H](C)C(=O)N[C@H](C)C(=O)NCC(=O)N[C@@H](Cc1c[nH]cn1)C(=O)N1CCC[C@H]1C(=O)N[C@@H](CO)C(=O)NC(C)(C)C(=O)N[C@@H](CCCCN)C(=O)N1CCC[C@H]1C(=O)N1CCC[C@H]1C(=O)N1CCC[C@H]1C(=O)N[C@@H](CCCCN)C(N)=O)[C@@H](C)CC)C(=O)O)C(=O)O
B4: SEQ ID NO: 8 (peptide)
peptide: H[Aib]QGTFTSDLSKLK([γGlu-γGlu-Palmitoyl])EEQRQ[Aib]EFIEWLKAGGHPS[Aib]KPPPK-NH2
modifications: N-terminus assumed
SMILES: CCCCCCCCCCCCCCCC(=O)N[C@@H](CCC(=O)N[C@@H](CCC(=O)NCCCC[C@H](NC(=O)[C@H](CC(C)C)NC(=O)[C@H](CCCCN)NC(=O)[C@H](CO)NC(=O)[C@H](CC(C)C)NC(=O)[C@H](CC(=O)O)NC(=O)[C@H](CO)NC(=O)[C@@H](NC(=O)[C@H](Cc1ccccc1)NC(=O)[C@@H](NC(=O)CNC(=O)[C@H](CCC(N)=O)NC(=O)C(C)(C)NC(=O)[C@@H](N)Cc1c[nH]cn1)[C@@H](C)O)[C@@H](C)O)C(=O)N[C@@H](CCC(=O)O)C(=O)N[C@@H](CCC(=O)O)C(=O)N[C@@H](CCC(N)=O)C(=O)N[C@@H](CCCNC(=N)N)C(=O)N[C@@H](CCC(N)=O)C(=O)NC(C)(C)C(=O)N[C@@H](CCC(=O)O)C(=O)N[C@@H](Cc1ccccc1)C(=O)N[C@H](C(=O)N[C@@H](CCC(=O)O)C(=O)N[C@@H](Cc1c[nH]c2ccccc12)C(=O)N[C@@H](CC(C)C)C(=O)N[C@@H](CCCCN)C(=O)N[C@@H](C)C(=O)NCC(=O)NCC(=O)N[C@@H](Cc1c[nH]cn1)C(=O)N1CCC[C@H]1C(=O)N[C@@H](CO)C(=O)NC(C)(C)C(=O)N[C@@H](CCCCN)C(=O)N1CCC[C@H]1C(=O)N1CCC[C@H]1C(=O)N1CCC[C@H]1C(=O)N[C@@H](CCCCN)C(N)=O)[C@@H](C)CC)C(=O)O)C(=O)O
B5: SEQ ID NO: 11 (peptide)
peptide: H[Aib]QGTFTSDLSKLK([γGlu-γGlu-Palmitoyl])EEQRQ[Aib]EFIEWLKA[dA]GHPS[Aib]KPPPK-NH2
modifications: N-terminus assumed
SMILES: CCCCCCCCCCCCCCCC(=O)N[C@@H](CCC(=O)N[C@@H](CCC(=O)NCCCC[C@H](NC(=O)[C@H](CC(C)C)NC(=O)[C@H](CCCCN)NC(=O)[C@H](CO)NC(=O)[C@H](CC(C)C)NC(=O)[C@H](CC(=O)O)NC(=O)[C@H](CO)NC(=O)[C@@H](NC(=O)[C@H](Cc1ccccc1)NC(=O)[C@@H](NC(=O)CNC(=O)[C@H](CCC(N)=O)NC(=O)C(C)(C)NC(=O)[C@@H](N)Cc1c[nH]cn1)[C@@H](C)O)[C@@H](C)O)C(=O)N[C@@H](CCC(=O)O)C(=O)N[C@@H](CCC(=O)O)C(=O)N[C@@H](CCC(N)=O)C(=O)N[C@@H](CCCNC(=N)N)C(=O)N[C@@H](CCC(N)=O)C(=O)NC(C)(C)C(=O)N[C@@H](CCC(=O)O)C(=O)N[C@@H](Cc1ccccc1)C(=O)N[C@H](C(=O)N[C@@H](CCC(=O)O)C(=O)N[C@@H](Cc1c[nH]c2ccccc12)C(=O)N[C@@H](CC(C)C)C(=O)N[C@@H](CCCCN)C(=O)N[C@@H](C)C(=O)N[C@H](C)C(=O)NCC(=O)N[C@@H](Cc1c[nH]cn1)C(=O)N1CCC[C@H]1C(=O)N[C@@H](CO)C(=O)NC(C)(C)C(=O)N[C@@H](CCCCN)C(=O)N1CCC[C@H]1C(=O)N1CCC[C@H]1C(=O)N1CCC[C@H]1C(=O)N[C@@H](CCCCN)C(N)=O)[C@@H](C)CC)C(=O)O)C(=O)O
B6: SEQ ID NO: 10 (peptide)
peptide: H[Aib]QGTFTSDLSKLK([γGlu-γGlu-Palmitoyl])EEQRQ[Aib]EFIEWLKA[dA]GPPS[Aib]KPPPK-NH2
modifications: N-terminus assumed
SMILES: CCCCCCCCCCCCCCCC(=O)N[C@@H](CCC(=O)N[C@@H](CCC(=O)NCCCC[C@H](NC(=O)[C@H](CC(C)C)NC(=O)[C@H](CCCCN)NC(=O)[C@H](CO)NC(=O)[C@H](CC(C)C)NC(=O)[C@H](CC(=O)O)NC(=O)[C@H](CO)NC(=O)[C@@H](NC(=O)[C@H](Cc1ccccc1)NC(=O)[C@@H](NC(=O)CNC(=O)[C@H](CCC(N)=O)NC(=O)C(C)(C)NC(=O)[C@@H](N)Cc1c[nH]cn1)[C@@H](C)O)[C@@H](C)O)C(=O)N[C@@H](CCC(=O)O)C(=O)N[C@@H](CCC(=O)O)C(=O)N[C@@H](CCC(N)=O)C(=O)N[C@@H](CCCNC(=N)N)C(=O)N[C@@H](CCC(N)=O)C(=O)NC(C)(C)C(=O)N[C@@H](CCC(=O)O)C(=O)N[C@@H](Cc1ccccc1)C(=O)N[C@H](C(=O)N[C@@H](CCC(=O)O)C(=O)N[C@@H](Cc1c[nH]c2ccccc12)C(=O)N[C@@H](CC(C)C)C(=O)N[C@@H](CCCCN)C(=O)N[C@@H](C)C(=O)N[C@H](C)C(=O)NCC(=O)N1CCC[C@H]1C(=O)N1CCC[C@H]1C(=O)N[C@@H](CO)C(=O)NC(C)(C)C(=O)N[C@@H](CCCCN)C(=O)N1CCC[C@H]1C(=O)N1CCC[C@H]1C(=O)N1CCC[C@H]1C(=O)N[C@@H](CCCCN)C(N)=O)[C@@H](C)CC)C(=O)O)C(=O)O

Key:
Test in all cases: cell-based or functional assay
human GLP-1 receptor = human GLP-1 receptor (human, UniProt P43220 24-463)
human glucagon receptor = human glucagon receptor (human, UniProt P47871 26-477)
Chain of human glucagon receptor (P47871 26-477): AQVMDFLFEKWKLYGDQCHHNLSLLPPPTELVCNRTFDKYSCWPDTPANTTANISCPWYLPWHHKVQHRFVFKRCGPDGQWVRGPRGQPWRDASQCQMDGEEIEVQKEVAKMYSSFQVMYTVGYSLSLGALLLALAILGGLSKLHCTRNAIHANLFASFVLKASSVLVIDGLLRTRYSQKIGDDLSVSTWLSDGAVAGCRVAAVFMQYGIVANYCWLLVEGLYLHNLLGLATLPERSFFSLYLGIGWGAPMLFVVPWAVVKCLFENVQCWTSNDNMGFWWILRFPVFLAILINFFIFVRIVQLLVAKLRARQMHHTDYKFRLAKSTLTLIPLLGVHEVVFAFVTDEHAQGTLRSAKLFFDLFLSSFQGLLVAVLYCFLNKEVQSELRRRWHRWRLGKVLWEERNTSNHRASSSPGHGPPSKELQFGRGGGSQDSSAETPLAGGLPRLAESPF

human GIP receptor = biological target: T1, human GIP receptor

Binder | EC50 hGLP-1R (cAMP formation) (human GLP-1 receptor) [pM] | EC50 hGlucagon R (cAMP formation) (human glucagon receptor) [pM] | EC50 hGIP R (cAMP formation) (human GIP receptor) [pM]
B1 | 2.6 | 24.7 | 5.6
B2 | 2.7 | 22 | 15.8
B3 | 3.8 | 25.8 | 20.4
B4 | 2.2 | 32.6 | 5.6
B5 | 2.3 | 22.4 | 3.5
B6 | 2.4 | 26.1 | 5.4
